Test results published in patent publication US20220267396A1.
Where “and” joins values, the source holds several entries; their conditions need not be identical. Identical values can stand only once.

T1: IL-10 receptor 1 (IL-10R1), IL-10R His-tag protein
T1 sequence (Q13651 22-235, species assumed, looked up): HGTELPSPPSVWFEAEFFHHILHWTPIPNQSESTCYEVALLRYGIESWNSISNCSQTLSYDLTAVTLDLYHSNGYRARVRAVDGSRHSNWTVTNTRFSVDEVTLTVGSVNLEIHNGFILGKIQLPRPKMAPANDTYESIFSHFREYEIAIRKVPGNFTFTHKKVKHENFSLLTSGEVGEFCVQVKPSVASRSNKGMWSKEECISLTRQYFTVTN


Legend:
[1] = target: anti-DNP mouse IgE antibody (Sigma, USA); test: BLI (Octet K2), fusion protein on sensor, anti-DNP mouse IgE in solution
[2] = target: anti-DNP mouse IgE antibody (Sigma, USA); test: BLI (Octet K2), average of three runs, fusion protein on sensor, anti-DNP mouse IgE in solution
[3] = target: anti-DNP mouse IgE antibody (Sigma, USA); test: BLI (Octet K2), fusion protein amine-coupled to AR2G sensor, anti-DNP mouse IgE in solution 50 pM-3.125 nM
[4] = target: T1, IL-10 receptor 1 (IL-10R1), IL-10R His-tag protein; test: BLI (Octet K2), IL-10R His-tag on sensor
[5] = target: T1, IL-10 receptor 1 (IL-10R1), IL-10R His-tag protein; test: BLI (Octet K2), IL-10R His-tag amine-coupled to AR2G sensor, fusion protein in solution 0-1,000 nM

kon [1] | Kd [2] [nM] | Kd [3] | fold of KD against Comparative Example 1 (NTIG-IL-10V) [4] [fold] | Kd [5] [nM] | koff [5] [s⁻¹] | kon [5] [M⁻¹ s⁻¹] | Molecule
123000 M⁻¹ s⁻¹ and 149000 M⁻¹ s⁻¹ and 166000 M⁻¹ s⁻¹ | 0.594 | 0.364 nM and 0.478 nM and 0.94 nM | – | – | – | – | FcεRIα-Fc fusion protein not containing IL-10Vm (control) (from UniProt P12319 26-205)
– | – | – | 3 | 29.2 | 0.0006 | 20600 | IL-10M-1 (NTIG-linker 1-IL-10Vm), monomeric IL-10 variant fusion protein of Example 1 (Fc fusion) SHTQPLGVFLFPPKPKDQLMISRTPEVTCVVVDVSQEDPEVQFNWYVDGVEVHNAKTKPREEQFNSTYRVVSVLTVLHQDWLNGKEYKCKVSNKGLPSSIEKTISKAKGQPREPQVYTLPPSQEEMTKNQVSLTCLVKGFYPSDIAVEWESNGQPENNYKTTPPVLDSDGSFFLYSRLTVDKSRWQEGNVFSCSVLHEALHNHYTQKSLSLSLGAAGSGGGGGSGGGGSGGGGSSPGQGTQSENSCTHFPGNLPNMLRDLRDAFSRVKTFFQMKDQLDNLLLKESLLEDFKGYLGCQALSEMIQFYLEEVMPQAENQDPDIKAHVNSLGENLKTLRLRLRRCHRFLPCENGGSGGSGGSKSKAVEQVKNAFNKLQEKGIYKAMSEFDIFINYIEAYMTMKIRN
– | – | – | – | 11.1 | 0.0008 | 71100 | IL-10M (NTIG-linker 1-IL-10V), dimeric IL-10 variant fusion protein of Comparative Example 1 (Fc fusion, not shown: a dimerising Fc or GST) AAGSGGGGGSGGGGSGGGGSSPGQGTQSENSCTHFPGNLPNMLRDLRDAFSRVKTFFQMKDQLDNLLLKESLLEDFKGYLGCQALSEMIQFYLEEVMPQAENQDPDAKAHVNSLGENLKTLRLRLRRCHRFLPCENKSKAVEQVKNAFNKLQEKGIYKAMSEFDIFINYIEAYMTMKIRN
